Source: the RNAGym collection of RNA variant scans (doi:10.7554/elife.90254)

B1: LINE1-mini (parent)
chain: GGCAGAGCUCAACACAGCGUGGCAAAGUGGCUGUGGCUAGACUGCC

Variants of: B1
Assay: self-cleavage, relative activity (ratio to wild type); higher = more cleavage; in vitro, sequencing; the parent is a self-cleaving ribozyme

Q: Which self-cleavage does the source give for GGCAGAGCUAAACACAGCGUGGCAAAGUGGCUGUGGCUAGACCGCC [C10A U43C] here?
A: 0.03

Q: With GGCAGAGCUCAACACAGCGUCGCAAAGUGGCUGAGGCUAGACUGCC [G21C U34A] as the variant, how does the self-cleavage read?
A: 0.12

Q: Which self-cleavage does the source give for GGCAGAGAUCAACACAGCGUGGCAAAGUGGCUGUGCCUAGACUGCC [C8A G36C] here?
A: 0.29

Q: Which self-cleavage does the source give for GGCAGAGCUCAACACAGCGUGGCAAAGUGGCUGUGGCUAGACAGCC [U43A] here?
A: 0.11

Q: Which self-cleavage does the source give for AGCCGAGCUCAACACAGCGUGGCAAAGUGGCUGUGGCUAGACUGCC [G1A A4C] here?
A: 0.08

Q: With UGCAGAGCUCAACACAGCGUGGCAAAAUGGCUGUGGCUAGACUGCC [G1U G27A] as the variant, how does the self-cleavage read?
A: 0.36

Q: Which self-cleavage does the source give for GGCAGAGCUCAACACAGCGUGACAAAGUGUCUGUGGCUAGACUGCC [G22A G30U] here?
A: 0.96

Q: With GGCAGAGCUCAACACAGCGUUGCAAAGUGGCCGUGGCUAGACUGCC [G21U U32C] as the variant, how does the self-cleavage read?
A: 0.68

Q: With GGAAGAGCUCAACACAGCGUGGCAAAGUGGCUGUGGCUUGACUGCC [C3A A39U] as the variant, how does the self-cleavage read?
A: 0.48

Q: For GGCAGAGCUCAACACGGCGUGGCCAAGUGGCUGUGGCUAGACUGCC [A16G A24C], which self-cleavage is on record?
A: 0.13

Q: For GGCAGAGCUCAACACAGCGUGGCAUAGUGCCUGUGGCUAGACUGCC [A25U G30C], which self-cleavage is on record?
A: 0.46

Q: With GGCAGUGCUCAACACAGCGUGGCAAAGUGGCUGUGGCUAGACCGCC [A6U U43C] as the variant, how does the self-cleavage read?
A: 0.51

Q: Which self-cleavage does the source give for GGCAGAGCUCGACACAACGUGGCAAAGUGGCUGUGGCUAGACUGCC [A11G G17A] here?
A: 0.04

Q: With GGCAGCGCUCAACACAGCGUGGCAAAGUGGCUGUGGCUAGACUGUC [A6C C45U] as the variant, how does the self-cleavage read?
A: 0.7

Q: For GGCAGAGCUCUACACAGCGUGGCAAAGUGGCUGUGGCUAGACUACC [A11U G44A], which self-cleavage is on record?
A: 0.05

Q: For GGCAGAGCUCAACCCAGCGUGGCAAAGUGGCUGUUGCUAGACUGCC [A14C G35U], which self-cleavage is on record?
A: 0.07

Q: Which self-cleavage does the source give for GGCAGAGCUCAACACAACGUGGCAAAGUGGCUGUGGCUUGACUGCC [G17A A39U] here?
A: 0.06

Q: With GGCAGAGCUCAACACAUCGUGGCAUAGUGGCUGUGGCUAGACUGCC [G17U A25U] as the variant, how does the self-cleavage read?
A: 0.12

Q: For GGCAGAGAUCAACACAGCGUAGCAAAGUGGCUGUGGCUAGACUGCC [C8A G21A], which self-cleavage is on record?
A: 0.63

Q: Which self-cleavage does the source give for GGCAGCGCUCAACACAGCGUGGCAAAGUGGCUGUGGUUAGACUGCC [A6C C37U] here?
A: 0.12

Q: For GGCAGAGCUCAACACAGCGUGGCAAAGUGGUUGUGGCAAGACUGCC [C31U U38A], which self-cleavage is on record?
A: 0.2

Q: For GGCAGAGCUCAACACAGCGUGGCAAAGUCGCUGUGGCUAGACUGCU [G29C C46U], which self-cleavage is on record?
A: 0.6

Q: For GGCAGAGCUCAACACAUCGUGGCAAAGUGGCUGUGGCUAGACUACC [G17U G44A], which self-cleavage is on record?
A: 0.07

Q: For GGCAGAGCUCAACACAGCAUGGCAAAGUGGCUGUGGCUAGACUACC [G19A G44A], which self-cleavage is on record?
A: 0.75

Q: With GGCAGAGCUCAACACAGCGUGGCGAAGUGGCUGUGGCUAGAAUGCC [A24G C42A] as the variant, how does the self-cleavage read?
A: 0.19

Q: For GGCAGAGCUCAACACAGCGUGGGAAAGUGGCUGUGGCUCGACUGCC [C23G A39C], which self-cleavage is on record?
A: 0.07

Q: With GGCAGAGCUCAAUACAGCGUGGCAAAGUGACUGUGGCUAGACUGCC [C13U G30A] as the variant, how does the self-cleavage read?
A: 0.15

Q: With GACAGAGCUCAACACAGCGUAGCAAAGUGGCUGUGGCUAGACUGCC [G2A G21A] as the variant, how does the self-cleavage read?
A: 2.98

Q: Which self-cleavage does the source give for GGCAGAGCUCAACACAGCGUGGCAAAGCGGCUUUGGCUAGACUGCC [U28C G33U] here?
A: 0.08

Q: With GGCAGAGCUCAACACAGCGUGGCAAAGUGGCUAUGACUAGACUGCC [G33A G36A] as the variant, how does the self-cleavage read?
A: 0.12

Q: Which self-cleavage does the source give for GGCAGAGCUCAACACAGCGUGGCAAAGGGGCUGUGGCUAGACUUCC [U28G G44U] here?
A: 0.23

Q: For GGCAGGGCUCAACACAGCGUCGCAAAGUGGCUGUGGCUAGACUGCC [A6G G21C], which self-cleavage is on record?
A: 0.13

Q: With GGCAGAGCUCAACACAGAGUGGCAAAGUGGCUCUGGCUAGACUGCC [C18A G33C] as the variant, how does the self-cleavage read?
A: 0.04

Q: Which self-cleavage does the source give for GGCAGAGCUCAACACAGCGUGGCUAAGUGGCUGUCGCUAGACUGCC [A24U G35C] here?
A: 0.09

Q: Which self-cleavage does the source give for GGCAGAGCUCAACUCAGCGUGGCGAAGUGGCUGUGGCUAGACUGCC [A14U A24G] here?
A: 0.79

Q: With GGCAGAGCUCAACACAGCGCGGCAAAGUGGCUGUGGCUAGAUUGCC [U20C C42U] as the variant, how does the self-cleavage read?
A: 0.31

Q: For GGCAGAGCUCAACACAGCGUGGCAAAUUGGUUGUGGCUAGACUGCC [G27U C31U], which self-cleavage is on record?
A: 0.33

Q: For GGCCGAGCUCAACACAGCGCGGCAAAGUGGCUGUGGCUAGACUGCC [A4C U20C], which self-cleavage is on record?
A: 0.05

Q: With GGCAGAGCUCAACACAGCGUGGCAAAGUGGCUGUGGCUUGAGUGCC [A39U C42G] as the variant, how does the self-cleavage read?
A: 0.03

Q: With GACAGAGGUCAACACAGCGUGGCAAAGUGGCUGUGGCUAGACUGCC [G2A C8G] as the variant, how does the self-cleavage read?
A: 0.13

Q: With GGCAGAGCUCAACACAGCGUGGCAAAGUGGCUGUGGCUACACUGCG [G40C C46G] as the variant, how does the self-cleavage read?
A: 0.08

Q: Which self-cleavage does the source give for GGCAGAGCUCAACACAGCGUGGCAAAGUGCCCGUGGCUAGACUGCC [G30C U32C] here?
A: 0.09

Q: With GGCAGAGCACAACACAGCGUGGCAAAGUGGCUGUGGCUAGAGUGCC [U9A C42G] as the variant, how does the self-cleavage read?
A: 0.13

Q: With GGCAGAGCUCAGCACAGCGUGGCAAAGUGGCUGUGGCUAUACUGCC [A12G G40U] as the variant, how does the self-cleavage read?
A: 0.06

Q: Which self-cleavage does the source give for GGCAGAGCUCAACAAAGCGUGGCAAAGCGGCUGUGGCUAGACUGCC [C15A U28C] here?
A: 0.12

Q: Which self-cleavage does the source give for GGCAGAGCUCAACUCAGCUUGGCAAAGUGGCUGUGGCUAGACUGCC [A14U G19U] here?
A: 0.62

Q: Which self-cleavage does the source give for GGCAGAGCUCGACACAGCGUGGCAAAUUGGCUGUGGCUAGACUGCC [A11G G27U] here?
A: 0.03

Q: For GACAGAGCUCAACACAGCGUGGCAAAGUGGCUGUGGCGAGACUGCC [G2A U38G], which self-cleavage is on record?
A: 0.05

Q: With GGCAGAGCUCAACACAGCGUGGCAAAGUGCCUGUGGCAAGACUGCC [G30C U38A] as the variant, how does the self-cleavage read?
A: 0.75

Q: Which self-cleavage does the source give for GGCAGAGCUCAACACAGUGUGGCAACGUGGCUGUGGCUAGACUGCC [C18U A26C] here?
A: 1.39

Q: With GGCAGAGCUCAACACAGCGUGGUAGAGUGGCUGUGGCUAGACUGCC [C23U A25G] as the variant, how does the self-cleavage read?
A: 1.17

Q: With GGCAGAGCUCAACAUAGCGUGGCAAAGUGUCUGUGGCUAGACUGCC [C15U G30U] as the variant, how does the self-cleavage read?
A: 0.6

Q: For GGCAGAGCUCAACACAGCGUGGCAACGUGGCUUUGGCUAGACUGCC [A26C G33U], which self-cleavage is on record?
A: 0.08

Q: For GGCAGAGCUCAACACAGCGUGGUAACGUGGCUGUGGCUAGACUGCC [C23U A26C], which self-cleavage is on record?
A: 0.64

Q: For GGCAGAGCUCAACACAGCGUGGCAGAGUGGCUGUGGCUAGACUGCU [A25G C46U], which self-cleavage is on record?
A: 0.4

Q: With GGCAGAACUCAAUACAGCGUGGCAAAGUGGCUGUGGCUAGACUGCC [G7A C13U] as the variant, how does the self-cleavage read?
A: 0.29
